Here are results for one molecule from patent publication US20120263644A1.

Assay [1] has as its target constitutively active LFA-1 expressed on Jurkat T-cell line J-β2.7/LFA-1Δ. Description: cell-based or functional assay.
Assay [2] addresses leukocyte function antigen-1 (LFA-1), composed of CD11a and CD18, on human white blood cells (human) (UniProt P20701). Description: cell-based or functional assay.

leukocyte function antigen-1 (LFA-1), composed of CD11a and CD18, on human white blood cells (human), sequence (P20701 26-1170, chain 1 of 2): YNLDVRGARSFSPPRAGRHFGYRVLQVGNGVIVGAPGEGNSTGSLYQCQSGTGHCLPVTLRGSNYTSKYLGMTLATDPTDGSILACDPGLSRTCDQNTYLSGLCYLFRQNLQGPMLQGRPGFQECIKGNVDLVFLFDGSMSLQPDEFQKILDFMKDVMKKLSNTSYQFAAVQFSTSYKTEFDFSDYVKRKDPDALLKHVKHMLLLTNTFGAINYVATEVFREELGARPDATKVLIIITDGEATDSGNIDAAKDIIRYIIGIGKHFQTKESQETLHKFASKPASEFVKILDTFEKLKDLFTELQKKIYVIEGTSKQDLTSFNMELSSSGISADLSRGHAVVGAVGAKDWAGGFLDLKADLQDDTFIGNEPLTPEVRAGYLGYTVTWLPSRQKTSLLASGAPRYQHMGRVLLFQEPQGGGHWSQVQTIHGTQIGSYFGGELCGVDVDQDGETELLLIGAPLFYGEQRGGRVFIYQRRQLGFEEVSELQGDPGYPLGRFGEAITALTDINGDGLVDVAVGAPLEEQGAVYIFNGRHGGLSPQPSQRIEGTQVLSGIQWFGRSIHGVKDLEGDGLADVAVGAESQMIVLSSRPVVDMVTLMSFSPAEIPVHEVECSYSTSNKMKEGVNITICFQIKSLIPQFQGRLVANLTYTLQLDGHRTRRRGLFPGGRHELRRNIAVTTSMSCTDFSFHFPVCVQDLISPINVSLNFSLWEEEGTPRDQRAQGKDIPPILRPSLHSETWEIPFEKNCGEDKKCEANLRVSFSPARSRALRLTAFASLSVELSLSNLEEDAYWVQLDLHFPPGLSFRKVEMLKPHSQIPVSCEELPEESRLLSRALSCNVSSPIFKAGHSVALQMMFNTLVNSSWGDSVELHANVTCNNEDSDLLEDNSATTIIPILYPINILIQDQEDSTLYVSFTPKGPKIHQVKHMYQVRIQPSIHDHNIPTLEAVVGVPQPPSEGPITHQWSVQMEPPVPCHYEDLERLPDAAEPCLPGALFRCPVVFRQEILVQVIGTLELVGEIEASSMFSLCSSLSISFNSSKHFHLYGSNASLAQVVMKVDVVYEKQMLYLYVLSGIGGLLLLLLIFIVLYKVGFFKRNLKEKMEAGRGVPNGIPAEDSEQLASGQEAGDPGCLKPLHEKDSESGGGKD
leukocyte function antigen-1 (LFA-1), composed of CD11a and CD18, on human white blood cells (human), sequence (P05107 23-769, chain 2 of 2, further chain): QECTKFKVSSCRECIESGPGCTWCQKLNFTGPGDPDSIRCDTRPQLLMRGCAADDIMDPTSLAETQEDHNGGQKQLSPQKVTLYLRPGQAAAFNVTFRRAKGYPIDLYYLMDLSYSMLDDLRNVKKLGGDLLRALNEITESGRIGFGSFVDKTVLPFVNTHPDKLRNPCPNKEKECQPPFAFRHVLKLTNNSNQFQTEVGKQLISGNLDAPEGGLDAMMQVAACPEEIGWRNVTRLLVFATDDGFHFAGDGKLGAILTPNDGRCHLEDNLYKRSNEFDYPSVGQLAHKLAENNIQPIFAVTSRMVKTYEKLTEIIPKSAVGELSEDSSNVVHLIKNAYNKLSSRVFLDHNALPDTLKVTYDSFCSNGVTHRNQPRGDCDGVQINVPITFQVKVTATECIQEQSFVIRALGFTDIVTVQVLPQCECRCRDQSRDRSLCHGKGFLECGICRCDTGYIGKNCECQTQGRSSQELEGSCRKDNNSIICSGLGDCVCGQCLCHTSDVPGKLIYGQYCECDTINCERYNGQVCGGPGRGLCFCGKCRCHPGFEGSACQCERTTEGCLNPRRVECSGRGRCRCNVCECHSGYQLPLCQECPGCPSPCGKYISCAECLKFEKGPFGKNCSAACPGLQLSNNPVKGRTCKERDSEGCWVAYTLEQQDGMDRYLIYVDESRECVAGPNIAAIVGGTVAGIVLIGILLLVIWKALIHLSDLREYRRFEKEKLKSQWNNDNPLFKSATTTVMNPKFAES

B1: leukotoxin (LtxA) of Aggregatibacter actinomycetemcomitans strain NJ4500 (protein)
chain: MATTSLLNTKQQAAQFANSVADRAKENIDAAKEQLQKALDKLGKTGKKLTLYIKNYKKGNGLTALIKAAQKLGIEVYHEGKDGPALTNGILNTGKKLLGLTERGLTLFAPELDKWIQGNKHLSNSVGSTGNLTKAIDKVQSVLGTLQAFLNTAFSGMDLDALIKARQNGKNVTDVQLAKASLNLINELIGTISSITNNVDTFSKQLNKLGEALGQVKHFGSFGDKLKNLPKLGNLGKGLGALSGVLSAISAALLLANKDADTATKAAAAAELTNKVLGNIGKAITQYLIAQRAAAGLSTTGPVAGLIASVVSLAISPLSFLGIAKQFDRARMLEEYSKRFKKFGYNGDSLLGQFYKNTGIADAAITTINTVLSAIAAGVGAASAGSLVGAPIGLLVSAITSLISGILDASKQAVFEHIANQLADKIKAWENKYGKNYFENGYDARHSAFLEDSLKLFNELREKYKTENILSITQQGWDQRIGELAGITRNGDRIQSGKAYVDYLKKGEELAKHSDKFTKQILDPIKGNIDLSGIKGSTTLTFLNPLLTAGKEERKTRQSGKYEFITELKVKGRTDWKVKGVPNSNGVYDFSNLIQHAVTRDNKVLEARLIANLGAKDDYVFVGSGSTIVNAGDGYDVVDYSKGRTGALTIDGRNATKAGQYKVERDLSGTQVLQETVSKQETKRGKVTDLLEYRNYKLDYYYTNKGFKAHDELNSVEEIIGSTLRDKFYGSKFNDVFHGHDGDDLIYGYDGDDRLYGDNGNDEIHGGQGNDKLYGGAGNDRLFGEYGNNYLDGGEGDDHLEGGNGSDILRGGSGNDKLFGNQGDDLLDGGEGDDQLAGGEGNDIYVYRKEYGHHTITEHSGDKDKLSLANINLKDVSFERNGNDLLLKTNNRTAVTFKGWFSKPNSSAGLDEYQRKLLEYAPEKDRARLKRQFELQRGKVDKSLNNKVEEIIGKDGERITSQDIDNLFDKSGNKKTISPQELAGLIKNKGKSSSLMSSSRSSSMLTQKSGLSNDISRIISATSGFGSSGKALSASPLQTNNNFNSYANSLATTAA
In assay [1], B1 displayed a sensitivity to LtxA-mediated toxicity, J-β2.7/LFA-1Δ cells against J-β2.7/LFA-1 wt cells of 10 times. In assay [2], the 50% effective dose (ED50) of LtxA against gp120-treated CD4 T cells, cell viability by cellular ATP after 20 hrs came to 0.367 µg/mL; the ED50 of LtxA against mutant gp120-treated CD4 T cells, cell viability by cellular ATP after 20 hrs amounted to 0.44 µg/mL; the ED50 of LtxA against untreated CD4 T cells, cell viability by cellular ATP after 20 hrs amounted to 0.437 µg/mL; the IC50 of inhibition of proliferation of Jurkat cells after 72 hours (CellTiter Glo) was found to be 0.25 µg/mL. Besides, in assay [2], the percent of CD3+ T lymphocytes expressing high levels of LFA-1 after LtxA treatment of PBMCs (approximately 11% before), flow cytometry was found to be 0.4%; the percent of CD4 T cells activated by surface-bound anti-CD3 and anti-CD28 killed by LtxA at 390 and 780 ng/ml was determined as 100%; the percent of untreated CD4 T cells susceptible to LtxA at 390 and 780 ng/ml is 50%.
